Measurements taken from article PMC5689005.

Experiments:
[1] = target: hLysRSΔN65 (human lysyl-tRNA synthetase, N-terminally truncated) (human, UniProt Q15046 66-597, del1-65); assay: fluorescence anisotropy
[2] = target: hLysRS (full-length human lysyl-tRNA synthetase) (human, UniProt Q15046 1-597); assay: fluorescence anisotropy
Chain of hLysRS (full-length human lysyl-tRNA synthetase) (Q15046 whole entry): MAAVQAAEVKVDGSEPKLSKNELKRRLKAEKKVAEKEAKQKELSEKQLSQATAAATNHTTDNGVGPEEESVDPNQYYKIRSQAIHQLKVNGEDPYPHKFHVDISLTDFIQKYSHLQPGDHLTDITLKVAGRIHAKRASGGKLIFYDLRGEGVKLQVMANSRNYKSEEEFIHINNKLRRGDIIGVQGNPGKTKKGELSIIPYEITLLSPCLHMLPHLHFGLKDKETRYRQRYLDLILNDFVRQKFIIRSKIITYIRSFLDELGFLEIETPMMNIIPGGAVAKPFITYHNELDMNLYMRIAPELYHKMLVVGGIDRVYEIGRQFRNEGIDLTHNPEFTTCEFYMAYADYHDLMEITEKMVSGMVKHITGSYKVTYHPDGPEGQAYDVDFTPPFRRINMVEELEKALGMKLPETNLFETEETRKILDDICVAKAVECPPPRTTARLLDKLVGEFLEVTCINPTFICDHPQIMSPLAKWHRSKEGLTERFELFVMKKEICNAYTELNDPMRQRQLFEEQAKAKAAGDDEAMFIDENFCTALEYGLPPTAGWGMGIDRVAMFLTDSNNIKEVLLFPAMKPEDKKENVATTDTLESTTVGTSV

Chain of hLysRSΔN65 (human lysyl-tRNA synthetase, N-terminally truncated) (Q15046 66-597, stated change not applied): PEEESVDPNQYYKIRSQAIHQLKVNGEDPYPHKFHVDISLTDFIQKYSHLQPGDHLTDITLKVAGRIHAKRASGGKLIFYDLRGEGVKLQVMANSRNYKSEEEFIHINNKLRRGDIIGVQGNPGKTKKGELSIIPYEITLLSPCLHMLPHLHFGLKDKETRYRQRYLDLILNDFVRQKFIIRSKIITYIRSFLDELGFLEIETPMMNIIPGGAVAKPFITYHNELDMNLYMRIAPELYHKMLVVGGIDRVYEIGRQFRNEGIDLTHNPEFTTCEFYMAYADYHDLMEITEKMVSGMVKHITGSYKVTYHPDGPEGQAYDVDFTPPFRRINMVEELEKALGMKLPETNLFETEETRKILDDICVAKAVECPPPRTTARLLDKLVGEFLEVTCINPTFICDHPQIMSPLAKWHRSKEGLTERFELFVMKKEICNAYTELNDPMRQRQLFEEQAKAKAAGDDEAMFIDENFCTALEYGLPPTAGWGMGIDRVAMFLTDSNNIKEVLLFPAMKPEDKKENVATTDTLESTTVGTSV

GGGCUUUAAAGUGAAAGCCC (structured_RNA) [HP2]: no binding [1].

GGCGACGGUGUAAAAAUCUCGCC (structured_RNA) [HP1 (A-rich stem-loop)]: no binding [2]; no binding [1].
